The values below come from US20250145722A1, “ANTI-GAL3 ANTIBODIES AND METHODS OF USE” (TrueBinding, Inc., priority 2020, published 2025).

The target of test [1] is T1, interaction of Gal3 and APP695 (Homo sapiens, UniProt P17931).
T1 construct: purchased R&D Systems; QCB200349; QCB200352; host or cells: mammalian (R&D 8259-GA) or E. coli (QCB200349)
Kind of test: Gal3-APP695 blocking ELISA. In kind it is binding. The method, then:
To identify Gal3-targeted antibodies with the ability to block the interaction of Gal3 and APP695, purified Gal3 and APP695 proteins were incubated in the presence (or absence) of various Gal3-targeted or control antibodies, or without antibody, and protein interaction was evaluated by ELISA.
Human GAL3 (mammalian, R&D Systems, 8259-GA; E-coli derived, untagged, TrueBinding, QCB200349; or His-tagged, TrueBinding, QCB200352) was diluted in PBS (Corning, 21-030-CM) to a concentration of 4 μg/mL and added to the wells of a 96-well ELISA plate (Thermo Fisher, 44-2404-21). After incubating the plate at 4° C. overnight, the plate was washed three times with PBST (PBS with 0.05% Tween 20 [VWR, 0777]) and then blocked for an hour with 2% BSA (EMD Millipore, 126609) in PBST at room temperature with gentle rocking. Human APP695 (R&D Systems, 9937-AP) was biotinylated with EZ Link Sulfo-NHS-LC-Biotin (ThermoFisher Scientific, A39257) and desalted using a Zeba Spin Desalting Column (ThermoFisher Scientific, 89882), following the manufacturer's instructions. […] The reaction was stopped with 1M HCl (JT Baker, 5620-02) and read using a plate reader (Molecular Devices) at absorbance of 450 nm. Percent blockade of Gal3-APP695 interaction was calculated as the fraction of signal obtained in the absence of antibody with the background signal subtracted.
For orientation: In an ELISA, binding on a coated surface is turned into a signal by an enzyme label.

The target in another test is T2, human Gal3 (Homo sapiens, UniProt P17931).
T2 construct: purchased AcroBio (Acro Biosystems) GA3-H5129
T2 sequence (P17931 whole entry): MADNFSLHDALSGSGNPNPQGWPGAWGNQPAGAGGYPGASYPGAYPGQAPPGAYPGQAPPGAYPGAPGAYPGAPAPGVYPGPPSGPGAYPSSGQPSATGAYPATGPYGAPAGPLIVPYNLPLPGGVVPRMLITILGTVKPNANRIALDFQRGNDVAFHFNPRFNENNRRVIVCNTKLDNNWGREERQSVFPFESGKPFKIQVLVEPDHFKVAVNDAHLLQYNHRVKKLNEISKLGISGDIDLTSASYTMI
As to the kind of experiment: Epitope binning assay, sandwich format, SPR-based Carterra LSA. The note with it: competitive binding for hGAL3. The method, then: First, the purified antibodies were diluted to 10 μg/ml concentration in 10 mM NaOAc (pH 5.0) and then were covalently coupled via amine group to HC200M chip activated by EDC and S-NHS to immobilize antibodies to different positions of a 384-spot array. One hundred thirty-eight binning cycles were run on the array of immobilized antibodies. In each cycle, first, human Gal3 (AcroBio GA3-H5129) was injected over the entire array to bind to different antibodies (primary antibody), followed by one antibody (secondary antibody) selected among the panel of 150 anti-GAL3 antibodies tested. At the end of each cycle, the array was regenerated by 10 mM Glycine (pH 2.0) to remove bound antigen and secondary antibody from the array. The data analysis was done using the Epitope software by CarterraBio.

T1 sequence (P17931 2-250 limits assumed): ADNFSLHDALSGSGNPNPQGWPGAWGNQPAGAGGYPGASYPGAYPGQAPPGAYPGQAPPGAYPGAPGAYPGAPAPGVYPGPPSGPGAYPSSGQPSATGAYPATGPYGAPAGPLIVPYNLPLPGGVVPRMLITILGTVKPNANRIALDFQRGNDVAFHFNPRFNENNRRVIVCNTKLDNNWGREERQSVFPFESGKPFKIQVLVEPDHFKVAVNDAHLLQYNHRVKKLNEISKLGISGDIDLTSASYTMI

B1: F849C.8D12: anti-Gal3 antibody (antibody, V domains shown)
VH: EVQLQQSGPELVKPGSSVKISCKASRYTFTDYNMDWVKQSHGKRLEWIGYIYPNNGGTGYNQKFKGKATLTVDKSSSTAYMELRSLTSEDSAVYYCARSYYDGSYDAMDYWGQGTSVTVSS
VL: DIQMTQTTSSLSASLGDRVTISCSASQGISNYLNWYQQKPDGTVKLLIYYTSSLHSGVPSRFSGSGSGTDYSLTISNLEPEDIATYYCQQYSKLPRTFGGGTKLEI
modifications: misc_feature 1..363 849.8D12 VH nucleic acid; misc_feature 1..318 849.8D12 VL nucleic acid
notes: anti-Gal3 antibody
B1: in test [1], the “Blocking of Gal3-APP695 binding (in words)” value is “did not impact”.

B2: 846.2B11: anti-Gal3 antibody (antibody, V domains shown)
VH: QVQLQQSGPELVRPGALVKISCKASGYTFTSYDINWVKQRPGQGLEWIGWIYPGDGSTKYNEKFKGKATLTADKSSSTAYMQLSSLTSENSAVYFCAREAASNAMDYWGQGTSVTVSS
VL: DIVLTQSPASLGVSLGQRATISCRASKSVSTSGYSYMHWYQQKPGQPPKLLIYLASILESGVPARFSGSGSGTDFTLNIHPVEEEDAAIYYCQHSRELPLTFGAGTKLELK
modifications: misc_feature 1..354 846.2B11 VH nucleic acid; misc_feature 1..333 846.2B11 VL nucleic acid
notes: anti-Gal3 antibody
For B2, the Epitope bin entry with human Gal3 was “bin 16”.
